Data from patent publication US20220289791A1 (UNIVERSIT CATHOLIQUE DE LOUVAIN, published 2022).
One block for each binder: values may come before it. *1 amine or outer side, *2 acyl side, *3 side chain or, on linkers, in order; H or OH if unused. Bridges are numbered along the chain shown (N, C = ends). Where no end group is shown, it is not given here. C6F4(1,4-diyl) = Fc1c(F)c([*:2])c(F)c(F)c1[*:1]

Assays:
[1] = biological target: T1, LDH1, tetramer of full length human LDHB subunits (human, UniProt P07195 2-334); assay: biochemical and biophysical evaluation, not specified further
T1 construct: Homotetramer; also called LDHBfl; full length LDHB
T1 sequence (P07195 2-334 limits assumed): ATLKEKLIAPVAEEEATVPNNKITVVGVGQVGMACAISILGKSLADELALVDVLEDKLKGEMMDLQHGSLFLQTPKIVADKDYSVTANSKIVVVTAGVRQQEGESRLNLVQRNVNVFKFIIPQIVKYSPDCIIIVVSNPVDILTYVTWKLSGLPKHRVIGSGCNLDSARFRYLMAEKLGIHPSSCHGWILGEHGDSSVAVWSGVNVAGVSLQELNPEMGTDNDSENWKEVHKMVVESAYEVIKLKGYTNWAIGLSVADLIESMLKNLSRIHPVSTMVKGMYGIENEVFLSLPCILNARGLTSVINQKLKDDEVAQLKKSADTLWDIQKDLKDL

[2] = biological target: T2, human LDH5, tetramer of human LDHA subunits (human, UniProt P00338 1-332); assay: cell-based or functional assay
[3] = biological target: T1, LDH1, tetramer of full length human …; assay: cell-based or functional assay
[4] = biological target: T2, human LDH5, tetramer of human LDHA …; assay: MST on tetrameric LDH5, Kd from red-dye raw fluorescence
[5] = biological target: T1, LDH1, tetramer of full length human …; assay: MST on tetrameric LDH1, 10 to 20 s on time

- binding result [1]: no binding
Binder: ATLKEKLIAPVAEEEATVP-NH2 [LB19, LDHB 19 N-terminal amino acid peptide]

- EC50 of disruption of the tetrameric state (normalised 350 nm intrinsic fluorescence) [3]: 172 µM
- Kd [4]: ~117 µM
- Kd [5]: ~380 µM
B1: macrocyclic peptide MP7 (peptide)
peptide: CTLKCKLI-NH2
modifications: linker 1-5 via C6F4(1,4-diyl); N-terminus assumed
SMILES: CC[C@H](C)[C@H](NC(=O)[C@H](CC(C)C)NC(=O)[C@H](CCCCN)NC(=O)[C@@H]1CSc2c(F)c(F)c(c(F)c2F)SC[C@H](N)C(=O)N[C@@H]([C@@H](C)O)C(=O)N[C@@H](CC(C)C)C(=O)N[C@@H](CCCCN)C(=O)N1)C(N)=O
- ΔTm, thermal denaturation by nanoDSF, 400 µM MP7 [2]: -5 ° C.
- ΔTm, thermal denaturation by nanoDSF, 400 µM MP7 [3]: -1.5 ° C.
